US10117953B2, “Antibody drug conjugates” (Novartis AG, priority 2013, dated 2018)

What was measured:
[1] = system: cKIT phosphorylation in Mo7e and GIST T-1 cells; assay: Western blot for agonistic properties (15 minutes treatment); type: cell-based, human; conditions: 5 ug/ml
Experimental: To evaluate the potential agonistic properties of cKIT ADCs, 2×10^6 of GIST T-1 (kindly provided by Dr. Takahiro Taguchi, Kochi U., Japan) or Mo7e (DSMZ, ACC-104) cells were serum starved overnight at 37° C. with 5% CO2 (DMEM for GIST T-1 and RPMI for Mo7e supplemented with 0.1% FBS) in 6-well plate (NUNC catalog #14067). […] One well was designated as untreated (UT). Cells were harvested in 1 ml PBS. […] Lysates were then spun down for 40 mins at 12,000 rpm at 4° C. 20 μg of each sample was boiled for 10 min at 75° C. and loaded on a 12-well NuPAGEO 4-12% Bis-Tris gel (Life Technologies, NP0322BOX, Carlsbad, Calif.). After protein transfer to membrane blots, membranes were blocked in TBST-5% milk at room temperature for 1 hour and then probed with primary antibodies overnight at 4° C. Blots were washed in TBST (4×5 mins) on the next day. Blots were incubated in the secondary antibody (goat-anti rabbit-HRP 1:30,000, Santa Cruz) for 1 hr at room temperature. Blots were washed in TBST (4×5 mins) and developed. […]

[2] = target: T1, cKit receptor on normal human CD34+ bone marrow cells (Homo sapiens, UniProt P10721); assay: cKit receptor levels on bone marrow cells by flow cytometry; type: cell-based; conditions: 10 μg/ml
T1 construct: host or cells: normal human CD34+ bone marrow cells (primary)
T1 sequence (P10721 26-976): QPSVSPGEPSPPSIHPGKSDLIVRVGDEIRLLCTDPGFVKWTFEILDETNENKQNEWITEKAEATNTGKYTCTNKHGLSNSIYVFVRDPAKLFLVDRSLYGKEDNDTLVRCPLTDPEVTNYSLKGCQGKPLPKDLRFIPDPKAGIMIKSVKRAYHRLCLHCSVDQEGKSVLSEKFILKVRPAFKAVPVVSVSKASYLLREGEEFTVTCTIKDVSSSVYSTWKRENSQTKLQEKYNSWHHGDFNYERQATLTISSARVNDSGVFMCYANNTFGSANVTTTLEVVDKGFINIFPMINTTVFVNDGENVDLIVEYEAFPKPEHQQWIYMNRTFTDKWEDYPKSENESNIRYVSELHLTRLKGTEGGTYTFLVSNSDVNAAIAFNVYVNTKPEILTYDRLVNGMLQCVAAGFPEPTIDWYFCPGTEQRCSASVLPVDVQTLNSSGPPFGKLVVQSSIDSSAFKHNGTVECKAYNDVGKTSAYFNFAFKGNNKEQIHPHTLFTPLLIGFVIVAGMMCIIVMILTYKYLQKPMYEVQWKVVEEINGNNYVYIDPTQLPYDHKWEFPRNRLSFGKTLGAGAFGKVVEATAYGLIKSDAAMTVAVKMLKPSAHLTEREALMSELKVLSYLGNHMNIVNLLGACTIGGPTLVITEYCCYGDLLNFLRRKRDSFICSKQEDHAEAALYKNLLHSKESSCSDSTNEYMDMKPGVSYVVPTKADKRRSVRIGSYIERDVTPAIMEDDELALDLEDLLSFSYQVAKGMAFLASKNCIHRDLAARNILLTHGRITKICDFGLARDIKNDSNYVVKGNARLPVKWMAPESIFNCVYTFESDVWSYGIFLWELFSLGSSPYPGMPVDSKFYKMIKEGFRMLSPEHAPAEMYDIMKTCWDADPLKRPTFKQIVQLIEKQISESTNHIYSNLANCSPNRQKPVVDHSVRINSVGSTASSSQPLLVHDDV
Experimental: In another internalization experiment, the impact of NEG085 on cKit receptor levels was evaluated on human bone marrow cells. Normal human CD34+ bone marrow cells (All Cells, Cat #ABM022F, Emeryville, Calif.) were thawed and washed with 10 mL of StemPro0-34 SFM medium (Gibco, Life Technologies, Carlsbad, Calif.). Cells were resuspended in 1.25 mL of StemPro-34 SFM medium at 4×10^5 cells/mL and split equally into two tubes. […] 100 μL of cell suspension was collected at each timepoint (0, 15, 30, 60, 120, and 240 min) from each condition, and placed into an ice cold collection tube to cease internalization. Cells were washed with 3 mL of ice-cold FBS stain buffer and resuspended in 100 μL of FBS stain buffer. […] of 104D2-BV421 (mouse anti-human IgG1 k, Biolegend) was added to each tube and incubated on ice for 1 hour. Following another wash with FBS stain buffer, total cKit receptors were measured by flow cytometry by assessing the mean fluorescence intensity of BV421 on a FACS Canto II® (BD Biosciences, San Jose, Calif.).

[3] = system: Mo7e cells (SCF-dependent); assay: Mo7e proliferation assay in presence of SCF; type: cell-based, human; conditions: 10 ng/ml SCF, 5 days
Experimental: To evaluate the potential antagonistic properties of the naked antibodies and the ability of the antibody drug conjugates (ADCs) to inhibit the proliferation of a cKIT-expressing cell line, MO7e (DSMZ, Catalog # ACC-104, Braunschweig, Del.) were grown in the presence or absence of cKIT ligand, Stem Cell Factor (SCF), for survival. MO7e cells were grown in either 10 ng/ml human granulocyte-macrophage colony-stimulating factor GM-CSF (R&D Systems Cat#215-GM, Minneapolis, Minn.) or 10 ng/ml human Stem Cell Factor SCF (R&D Systems Cat#255-SC) prior to seeding in 96 well plates (Costar Cat #3904, Corning, Tewksbury, Mass.) at 5000 cells/well in 100 μl dilution medium. A duplicate plate was generated for a day 0 measurement and all plates were incubated in a tissue culture incubator at 37° C. with 5% CO2 overnight. […] Assay plates were shaken gently for 20 min and the resulting luminescence intensity was measured using a Perkin Elmer 1450 Microbeta TriLux® plate reader (Perkin Elmer, Waltham, Mass.). […] Following this incubation period, relative cell viability was determined via the addition of Cell titer Glo reagent as described above. The effect of the ADCs on cell proliferation was calculated using the average of the duplicates as follows: (% Inhibition=(ADC or Ab treated)/(untreated)*100) The % inhibition data was fitted to a 4-parameter logistic equation and IC50 values were determined.

[4] = system: Uke-1 cells; assay: ADCC activity in vitro (Calcein release, NK3.3 effector cells); type: cell-based, human; conditions: effector to target ratio 20 to 1
Experimental: In brief, Uke-1 cells were stained with Calcein acetoxy-methyl ester (Calcein-AM; Sigma-Aldrich catalog #17783-5MG, St. Louis, Mo.), washed twice, pipetted into a 96-well microtiterplate (96 well, U-bottomed, clear plastic; Corning Costar, catalog #650 160, Tewksbury, Mass.) at a concentration of 5000 cells per well and pre-incubated for 10 min with a serial dilution of the above mentioned antibodies and proteins (from 50,000 to 0.003 μg per ml) before adding the effector NK3.3 cells for 1 hour in an effector to target ratio of 20 to 1. In order to calculate the antibody specific lysis of the target cells, a parallel incubation of target cells only without antibody or effector cells served as a baseline and negative control, whereas the positive control or maximal lysis or hundred percent specific lysis was determined by lysis of target cells only with a 1% Triton-X 100 solution. […] Following a co-incubation of target and effector cells, the microtiterplate was centrifuged and an aliquot of the supernatant fluid was transferred to another microtiterplate (96 well, flat-bottomed, black with clear bottom; Corning Costar, catalog #3904, Tewksbury, Mass.) and the concentration of free Calcein in solution was determined with a fluorescence counter (Victor 3® multilabel counter, Perkin Elmer, Waltham, Mass.).

B1: NEG085: anti-cKIT antibody of Table 1; VH SEQ ID NO 82, VL SEQ ID NO 91; derived from 9P3 (antibody, V domains shown)
VH: EVQLVESGGGLVQPGGSLRLSCAASGFAFSGYYMAWVRQAPGKGLEWVANINYPGSSTYYLDSVKGRFTISRDNAKNSLYLQMNSLRAEDTAVYYCARGDYYGTTYWYFDVWGQGTTVTVSS
VL: DIQMTQSPSSLSASVGDRVTITCRASQSISSYLNWYQQKPGKAPKLLIYYTSRLQSGVPSRFSGSGSGTDFTLTISSLQPEDFATYYCQQGRRLWSFGGGTKVEIK
downstream signaling (phospho ERK, phospho AKT) [1]: downstream signaling pathways are not affected | phosphorylation of cKIT ([1]; absence of ligand (SCF)): can mediate phosphorylation of cKIT in the absence of ligand (SCF) | time of the bulk of the internalization [2]: 15 min | cKIT internalization ([2]; 0-240 min): rapidly internalized | inhibition of cell proliferation [3]: do not have this effect | ADCC [4]: not able to induce ADCC even at higher concentrations
